Measurements published in PMC3836765.

Key:
[1] = target: MDM2 (human (endogenous in SJSA-1)) (UniProt Q00987)
[2] = target: MDMX (human (endogenous in SJSA-1)) (UniProt O15151)
[3] = target: MDM2 (human (endogenous in SJSA-1)) (UniProt Q00987); remark: listed apart in the source
[4] = target: MDMX (human (endogenous in SJSA-1)) (UniProt O15151); remark: listed apart in the source
[5] = target: MDM2 (human (endogenous in SJSA-1)) (UniProt Q00987); remark: listed apart in the source
[6] = target: MDMX (human (endogenous in SJSA-1)) (UniProt O15151); remark: listed apart in the source

Chain of MDMX (human (endogenous in SJSA-1)) (O15151 whole entry): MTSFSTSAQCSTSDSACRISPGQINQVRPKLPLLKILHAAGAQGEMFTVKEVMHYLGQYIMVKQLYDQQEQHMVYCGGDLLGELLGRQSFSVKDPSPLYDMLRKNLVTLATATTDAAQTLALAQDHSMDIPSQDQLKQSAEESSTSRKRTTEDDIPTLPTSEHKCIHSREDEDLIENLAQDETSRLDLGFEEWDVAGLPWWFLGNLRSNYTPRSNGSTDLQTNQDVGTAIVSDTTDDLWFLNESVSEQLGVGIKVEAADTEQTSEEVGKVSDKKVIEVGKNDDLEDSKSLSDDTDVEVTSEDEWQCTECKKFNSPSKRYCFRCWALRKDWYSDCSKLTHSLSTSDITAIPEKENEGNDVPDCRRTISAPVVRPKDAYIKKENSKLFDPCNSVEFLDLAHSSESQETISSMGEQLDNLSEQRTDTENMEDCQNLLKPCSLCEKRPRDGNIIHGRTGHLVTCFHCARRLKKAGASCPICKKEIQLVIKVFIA
Chain of MDM2 (human (endogenous in SJSA-1)) (Q00987 whole entry): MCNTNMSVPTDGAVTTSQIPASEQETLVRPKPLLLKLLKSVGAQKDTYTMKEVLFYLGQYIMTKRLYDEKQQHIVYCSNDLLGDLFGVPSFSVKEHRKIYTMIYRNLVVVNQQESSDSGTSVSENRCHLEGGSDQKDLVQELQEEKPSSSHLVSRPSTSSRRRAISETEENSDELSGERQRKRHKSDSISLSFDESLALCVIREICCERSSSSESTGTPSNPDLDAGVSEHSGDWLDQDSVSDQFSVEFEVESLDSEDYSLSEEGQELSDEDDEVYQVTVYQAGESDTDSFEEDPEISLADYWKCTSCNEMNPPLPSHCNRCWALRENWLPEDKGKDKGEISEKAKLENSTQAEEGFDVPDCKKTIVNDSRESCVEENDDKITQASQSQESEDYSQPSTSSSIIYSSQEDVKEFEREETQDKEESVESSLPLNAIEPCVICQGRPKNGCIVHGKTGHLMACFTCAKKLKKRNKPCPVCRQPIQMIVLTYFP

p53 protein level in SJSA-1 cells after 24 h with 10 uM protein, Western blot densitometry, fold increase [3] [fold] | p53 protein level in SJSA-1 cells after 24 h with 10 uM protein, Western blot densitometry, fold increase [4] [fold] | caspase activation in SJSA-1 cells, Homogeneous Caspase Assay, 24 h, fold change [5] [fold] | caspase activation in SJSA-1 cells, Homogeneous Caspase Assay, 24 h, fold change [6] [fold] | Substance | cytotoxicity in SJSA-1 cells, CyQuant Assay, 24 h, percent cell death relative to 10 uM rHSA-treated cells (concentrations as indicated in Figure 4A) [1] [% cell death] | cytotoxicity in SJSA-1 cells, CyQuant Assay, 24 h, percent cell death relative to 10 uM rHSA-treated cells (concentrations as indicated in Figure 4A) [2] [% cell death]
2.9 | 2.9 | 7 | 7 | recombinant human serum albumin fused at its C-terminus to the MDM2/MDMX-binding peptide N8A-PMI (rHSA-PMI), biotinylated (from UniProt P02768 25-608) | 84 | 84
1.5 | 1.5 | < 2 | < 2 | recombinant human serum albumin fused at its C-terminus to the wild type p53-derived peptide P53i (rHSA-P53i), biotinylated (from UniProt P02768 25-608) | 60 | 60
